assay: soluble on expression in E. coli; label from the status in PepcDB or PDB records

Sequence	soluble on expression in E. coli
MTKVLFITANPNSAEGSFGMAVGEAFIEAYKNEHPQDEVVTIDLFNTTVPAIDADVFAAWGKFAAGEGFEALTEVQQQKVAAMNTNLETFMNADRYVFVTPMWNFSYPPVVKAYLDNVAIAGKTFKYTENGPVGLLEGKKALHIQATGGVYSEGAYAAVDFGRNHLKTVLGFVGVNDTEYIAVEGMNANPEKAQEIKEAAIANARELAKRF	not soluble
MGSDKIHHHHHHMKKYQRLAEQIREQIASGVWQPGDRLPSLREQVASSGMSFMTVGHAYQLLESQGRIIARPQSGYYVAPHPVCRSVATAAHVIRDEAVDINTYIFEMLQASRDTSVVPFASAFPDPRLFPLPQLNRSLAQVSKTATAMSVIENLPPGNAELRYAIARRYAQQGITVSPDEIVITAGALEALNLSLQAVTAPGDWVVVENPCFYGALQALERLRLKALSIPTDVKEGIDLMALEQALQEYPVKACWLMTNSQNPLGFTLSAEKKARLVALLTHHNVTLIEDDVYSELYFGREKPLPAKAWDRDDTVLHCSSFSKCLVPGFRIGWVAGGSHARQIQRLQLMSTLSTSSPMQLALVDYLSTRRYDAHLRRLRRQLAERKQQAWQTLLRHLPAEVKIHHNDSGYFLWLELPEQLDAGELSAKALEHLISIAPGKMFSTSGAWTRFFRFNTAWHWGEREEQAVKQLGSLIREMLSAKSLV	not soluble
MSKLLLKTPCTTWTFDSLMACVFGIKVSDVKVYFDILKNGPSKINDIAERINRDRSTVQRAVQNLMNAGLVKRKQVNIKDGGYYYVYEAIPFEETKKIIKKTMEEWCNNMKKWVEELEFEDVVKEYLENIEE	not soluble
MGFMIEHWDFSTPMATQETTTAEHIQPNHWYHCERLHPDIRSWLEDNHVPRATVDHLLADESRPSFHPLDDDNFMLILRGINMNENASPEDMLSIRILYFQGALISTRKIPSRAIMEIRQALAEHKGPKSLASLLNQIIEGLNGKIDLYLDTIEETLNEFDVNDESTYNHIAAQKALISIKRFIRPQQYAIRDLIESESELVTSRPHQYRFAHNNITRINETIEFYLGEVALFQDEIKHNRDEKTNKNS	soluble
MNYELLTTENAPVKMWTKGVPVEADARQQLINTAKMPFIFKHIAVMPDVHLGKGSTIGSVIPTKGAIIPAAVGVDIGCGMNALRTALTAADLPENLAELRQAIETAVPHGRTTGRCKRDKGAWENPPFNVDAKWAELEAGYQWLTQKYPRFLNTNNYKHLGTLGTGNHFIEICLDESEQVWIMLHSGSRGIGNAIGTYFIDLAQKEMQDQLETLPSRDLAYFMEGTEYFDDYLRAVAWAQLFASLNRDAMMENVVTALQSITQKTVRQPQTLAMEEINCHHNYVQKEQLFGEEIYVTRKGAVSARAGQYGIIPGSMGAKSFIVRGLGNEESFCSCSHGAGRVMSRTKAKKLFSVEDQIRATAHVECRKDAEVIDEIPMAYKDIDAVMAAQSDLVEVIYTLRQVVCVKG	not soluble
MSCMGAAVNIITTDGPAGRAGFTASAVCSVTDTPPTLLVCLNRGASVWPVFNENRTLCVNTLSAGQEPLSNLFGGKTPMEHRFAAARWQTGVTGCPQLEEALVSFDCRISQVVSVGTHDILFCAIEAIHRHTTPYGLVWFDRSYHALMRPAC	not soluble
MGVSRVLHVEGGTPLKGELRVYPAKNAALPILAASLLTPEPITLVEVPRLRDVEVMLELLAHLGTQYAWEGRTLHLQTPEIKSTHAPYELVGQMRASFIVWGALLARAGEGHVSMPGGCAFGFRPVDQHIKALEALGAEVWEEDGTFHARRTRPLSGRVVFDLPTVGGTEQAMLAVALGGEATLVQAAVEPEVVDLGHFLALLGAEVEGLGSPIVRIKGAPRLKGGTYRIIPDRIEAGTYLLAAAATRGSLTLEGVRPDHLDALLDKLWRSGHRLEVGEDWIRFRATPDPAPFHVEAREYPGFPTDLQPIATAYLATVPGQSTVVDRIYPDRFTHVGELARMGAELYLRDRILTVQGRRLHGAQVKALDIRAGGALVVAALSAEGASEIEGVYFLERGYEHLTERLQALGARVHLRESPVALAAD	soluble
MSLSTMLVAEDLSAVGGISLSSALPVLTAMQYDVAALPTSLLSTHTSGYGTPAVVDLSTWLPQVFAHWTRAQLHFDQALIGYVGSVALCQQITTYLEQQTLSLLVVDPVLGDLGQLYQGFDQDYVAAMRQLIQQADVILPNTTEAALLTGAPYQVTPDLEVILPALQAQLKTGAHAVITDVQRADQIGCAWLDEAGHVQYCGARRLPGHYNGTGDTLAAVIAGLLGRGYPLAPTLARANQWLNMAVAETIAQNRTDDRQGVALGDLLQAILALNEGHHHHHH	soluble
LKRYIAGLACAATAVLSAPALASTAHAQAADPISALKSQFSSGRGVNFVDTTKTQGPQGNMVLAKRTGALQFGPSGISASDQTAQLRFKASDFEDLTEGEEDEDFSKFFRGLAKPERVVRIKNTTYVSGGVMGEFMPADKTWVRFPDGLLGFTGAMSQFVNVAEPATLKALLAHATKHGGTYSGKITFGELNKVSPWFRASLGAPTAKTAKIVVSWKLFLGSDRLAKRLVTTYSTAGSAESTVTVDTRYTGWGSKVTVKAPPADQVADLKDLEEGAETATSIPLLGN	soluble
SVMYEEDFVLNSRGMKLFTCVWKPVKQEPKALLFLCHGYAMESSITMNSAATRLANAGFAVYGMDYEGHGKSEGLNGYISNFDDLVDDVSNHYSTICEREENKGKMRFLLGESMGGAVVLLLARKKPDFWDGAVLVAPMCKLADEIKPHPVVISILIKLAKFIPTWKIVPGNDIIDIAIKEPHIRNQVRENKYCYKGRPRLNTAYQLLLVSLDLEKNLHQVSIPFIVLYGEDDKVTDKSISKMLYEVASSSDKTFKLYPKMWHALLYGETNENSEIVFGDIINWLEDRATDSNGGLESQLKHKHDGFLKHK	soluble
SLRGWRGLRVYDMHVHLHEYSDREVEEILDADKSLVVVAVSDDLESAWRTLDLWHTFGGRVVPCLGFHPWNVREGRVWEAWEVLRLAYRYGVPCLGEVGLDRRFVDEYTWRVQNEVFDAFVQLAEDMGVMLNIHAPDAWKHVAHRIGWTSRARFMYHWYTGPATLPRALPEGRVWFSINSAIRVQEKSVRVAREIPLRSLVVESDGPYNYRGLRLSPLMVRETVKLVAEARGEDPGRLMEAISLNSERLLGLL	soluble
MGSDKIHHHHHHMFNNHEIDTILSTLRMEADPSLHPLFEQFEKFYEEKLWFQLSESLTKFFDDAKSTPLRLRLYDNFVSKFYDKINQLSVVKYLLASLKDSKDFDESLKYLDDLKAQFQELDSKKQRNNGSKDHGDGILLIDSEIARTYLLKNDLVKARDLLDDLEKTLDKKDSIPLRITNSFYSTNSQYFKFKNDFNSFYYTSLLYLSTLEPSTSITLAERQQLAYDLSISALLGDKIYNFGELLHHPIMETIVNDSNYDWLFQLLNALTVGDFDKFDSLIKVQISKIPILAQHESFLRQKICLMTLIETVFVKNIRMLSFEDISKATHLPKDNVEHLVMRAISLGLLKGSIDQVNELVTISWVQPRIISGDQITKMKDRLVEWNDQVEKLGKKMEARGQSIWV	not soluble
MEQQPQLNDHNKQEYPPMHTAEHLLNATMVKTFGCPRSRNAHIERKKSKCDYILPTCPTDAEIQAIEDKVNEVISQNLPVTVEFMTHEQAKGIVDLSKLPADASETLRIIRIGDYDACACIGLHVSNTSEVGTFKIISHDYNEERQTLRLRFKLIEKK	not soluble
MSSQIRGSKQHEDVDPVTIKKIEEAYVMLNGPDGAKCSSLLKKNLTKDVIEKLKTKSTKLGANLYDCIRSGVYCLDALVGVYAPDAEAYTLFAPLFDKIIEDYHGLGPDQKQPPVDLGEGKTKEFPPLDPKGKYIKSTRIRCGRSLNGYQFNPCLTEDNYLEMEEKVKKAFSEFSDEELKGTYYPLDGMSKDTQNQLIADHFLFKEGDRHLQYANACNFWPKGRGIFHNNKKTFLIWVNEEDHLRIISMQEGSDVGAVLERLIKGVRGIEKQVQFSRDDRLGWLTFCPTNLGSTVRASVHIALPKLSAREDFKQICDKLDLQLRGIHGEHSESEGGVYDISNRARLGLSEYEAVKKMYDGVKNLIEMEEKET	not soluble
MGSDKIHHHHHHMLAALKKYLLVPKLMRLSAGAPRDHHIAWDRFWSNVKTTGASGDVLWDSGSDHEMQGYVDRLRLHLDPGLPIVDIGCGNGSFTRQLAGHFPHAVGVDVSAHAVRRARAETAGLANISYAVADMTASGAGSGLLEELAVLDTGGQAGGGANVFIRGVLHVLGERDQHALAENARAITRANGRVFLAETNFRGNAVDYVTHLGATLRSIPAPLEGAIRGLPMPGRFGPKERSLAFPASRWELIEEGPTTIETMPLSNPARSDLIPGYFAVLEGRN	not soluble
RVMDMKAPIKVYMTKKLLGVKPSTSVQEASRLMMEFDVGSLVVINDDGNVVGFFTKSDIIRRVIVPGLPYDIPVERIMTRNLITANVNTPLGEVLRKMAEHRIKHILIEEEGKIVGIFTLSDLLEASRRRLETAISAE	soluble
MSLKILIIEDDLALARSISHNLHDLGHFCEIISSISEENKEPYDVILVSSKVCTQGRCEHFVRYNSKQIIIMMASHVNEDGVNKPIQAGARDYILKPFKMDELLRKIQYHKAYQEMTARLGFYENYLDFIHAELPLPKDFSYRPPFIIHTPSQELANAYLLQYAKERQMDFSFFSLKDTTWKELYKNKDKLERPFYIMHLEELKKDEQLKLLELARSCPIVLSYTHKEPLEFPKIVSIECGNKPLSLFNNHTTFLSIQEYEKEAIRHFSSTCTDTELANKLGISRKSLWEKRRKYNLPREGHHHHHH	soluble
MPDFAKQGPIVIGGVGGSGTRLIAEIVMDMGFYLGGMLNQSKDLLYFSLLFKRPTWFSKVVTSNEQEIFRGLKILENRLTTQKELTGKDIKFIEKAAQTYRNGDLLAQKIKKNMLFPDPINRQLYRGWGWKEPNAHLFLPYIHRYFPNGKYIHVIRNGLNMAFSKNQQQLFNWGPLFGVTIPNNPMKIPNASLTYWIKANERAVMYGTEQMKGRFLLIQFDQLCVNPTPQLQKLAEFLAVDDLAIDEWSEKIDPAAAASKYKEADLEHHHHHH	not soluble
MIPTTATVDDEPGQIKRALIDASAGAISGGVSRSVTSPLDVIKIRFQVQLEPTTSWGLVRGNLSGASKYTGMVQATKDIFREEGFRGFWRGNVPALLMVMPYTSIQFTVLHKLKSFASGSTKTEDHIHLSPYLSFVSGALAGCAATLGSYPFDLLRTILASQGEPKVYPTMRSAFVDIIQSRGIRGLYNGLTPTLVEIVPYAGLQFGTYDMFKRWMMDWNRYKLSSKIPINVDTNLSSFQLFICGLGAGTSAKLVCHPLDVVKKRFQIEGLQRHPRYGARVERRAYRNMLDGLRQIMISEGWHGLYKGIVPSTVKAAPAGAVTFVAYEFTSDWLESISW	soluble
MKVTKADIVISAVKPEQYPDGDLPEIALAGRSNVGKSSFINKILNRKKLVRISSKPGKTQTLNFFLINEMMHFVDVPGYGYAKVSKTERAAWGKMIETYFTTREQLDAAVLVVDLRHKPTNDDVMMYDFLKHYDIPTIIIATKADKIPKGKWQKHLKVVKETLDIESGDEVVLFSSETGLGKEEAWKAIHKFTKTKNA	not soluble
TFRLVIACPDGVGIVAKVSNFLATYNGWITEASHHSDNDNGWFFMRHEIRADSLPFDLDGFRQAFAPIAREFSMEWRITDSEVKKRVVLMASKESHCLADLLHRWHSGELDCEIPCVIANHDDLRSMVEWHGIPYFHVPVDPQDKQPAFDEVSRLIDEHGADCIVLARYMQILPPDLCRKYAHQVINIHHSFLPSFIGAKPYHQASKRGVKLIGATSHYVTEELDAGPIIEQDVVRVTHRDNVEDMVRLGKDVEKLVLARGLRYHLEDRVLVH	not soluble
MAYQVTTFYHFTRLNCLAEKQSRWQELGDRLGLKGTILLAEEGVNATIAGESAAIEEMVKIMAADLGLTSVPQRHSWAKTIPFQRMKVKIKPEIVSLGQPQVNPEKQVGTYVSPQQWNQLLQDPDVVVIDTRNDYEVAIGTFQGAVNPCTKKFRQFPDYVKNNLDQQKNKKVAMFCTGGIRCEKASAYLLEEGFAEVYHLRGGILHYLETIAPEESLWQGECFVFDERVAVQEGLKVGSHALCDHCGYPLRVGDLAEIRYAVRHCPQCGLTVAVSNELLEHHHHHH	soluble

— the DeepSol protein solubility set
